Measurements as given in US20260001953A1 (TWIST BIOSCIENCE, published 2026).

Key:
[1] = molecular target: T1, SIGLEC-8 transiently expressed on cells (UniProt Q9NYZ4 17-499, limits assumed); test: cell binding titration, transient SIGLEC-8 line
T1 construct: whole, on cells; Two cassettes are described (P2A mVenus and direct mVenus fusion); also called the transient line; pTT5-SIGLEC-8 P2A mVenus

[2] = molecular target: Sialic acid-binding immunoglobulin-like lectin 8 (SIGLEC-8), antigen of the Carterra SPR studies (UniProt Q9NYZ4 17-363, limits assumed); test: Carterra SPR
Sialic acid-binding immunoglobulin-like lectin 8 (SIGLEC-8), antigen of the Carterra SPR studies, sequence (Q9NYZ4 17-363 limits assumed): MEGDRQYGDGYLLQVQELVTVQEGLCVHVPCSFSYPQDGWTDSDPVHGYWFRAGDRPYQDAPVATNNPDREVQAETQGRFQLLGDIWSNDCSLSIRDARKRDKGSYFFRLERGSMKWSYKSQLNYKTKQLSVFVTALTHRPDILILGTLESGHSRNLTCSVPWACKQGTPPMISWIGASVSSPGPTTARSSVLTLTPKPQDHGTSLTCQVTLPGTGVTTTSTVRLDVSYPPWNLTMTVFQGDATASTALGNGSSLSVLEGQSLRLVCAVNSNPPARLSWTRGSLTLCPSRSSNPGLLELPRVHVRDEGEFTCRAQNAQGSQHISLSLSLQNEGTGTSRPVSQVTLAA
How it was run: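 Binding kinetics of antibodies to SIGLEC-8 were measured by surface plasmon resonance on a Carterra instrument. The antibodies came from synthetic antibody libraries panned over four rounds with a bead-based strategy and screened by clonal ELISA. Selected clones were expressed and purified before testing. The read-outs are rate constants, dissociation constants or results from these kinetic runs.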

T1 sequence (Q9NYZ4 17-499 limits assumed): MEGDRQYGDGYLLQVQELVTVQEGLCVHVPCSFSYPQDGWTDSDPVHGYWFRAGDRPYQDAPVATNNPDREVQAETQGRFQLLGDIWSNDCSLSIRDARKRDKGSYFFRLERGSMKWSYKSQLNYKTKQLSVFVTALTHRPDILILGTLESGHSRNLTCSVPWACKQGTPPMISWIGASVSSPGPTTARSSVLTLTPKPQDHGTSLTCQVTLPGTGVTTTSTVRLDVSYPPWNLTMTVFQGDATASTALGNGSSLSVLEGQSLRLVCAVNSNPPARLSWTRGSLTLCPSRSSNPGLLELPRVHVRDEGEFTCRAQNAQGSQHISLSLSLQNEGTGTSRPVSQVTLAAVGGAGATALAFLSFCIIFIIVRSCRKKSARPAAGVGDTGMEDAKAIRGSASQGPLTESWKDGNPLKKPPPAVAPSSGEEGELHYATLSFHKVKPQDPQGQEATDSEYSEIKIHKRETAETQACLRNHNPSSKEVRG

| EC50 [1] [nM] | Kd [2] [nM] | binding result [2] | Binder |
| --- | --- | --- | --- |
| 355 | 326 | – | SIGLEC-8-29 (antibody, human IgG1, kappa, V domains shown, tested as expressed and purified mAb) VH: EVQLLESGGGLVQPGGSLRLSCAASGFTFSRHAMTWVRQAPGKGLEWVSAISSSGDNTYYVDSVKGRYTISRDNSKNTLYLQMNSLRAEDTAVYYCARIHRNGHAFDIWGQGTLVTVSS VL: DIQMTQSPSSLSASVGDRVTITCRASQSIHTYLNWYQQKPGKAPKLLIYGASTLRSGVPSRFSGSGSGTDFTLTISSLQPEDFATYYCQQSYSTPLLTFGGGTKVEIKR |
| 50.7 | – | no binding | SIGLEC-8-13 (antibody, human IgG1, kappa, V domains shown, tested as expressed and purified mAb) VH: EVQLLESGGGLVQPGGSLRLSCAASGFTFSSYDMNWVRQAPGKGLEWVSAISGSGVGTYYADSVKGRFTISRDNSKNTLYLQMNSLRAEDTAVYYCSKDVRWSPGGMDVWGQGTLVTVSS VL: DIQMTQSPSSLSASVGDRVTITCRASQSVSIYLNWYQQKPGKAPKLLIYATSNLHSGVPSRFSGSGSGTDFTLTISSLQPEDFATYYCQQSHSTPYTFGGGTKVEIKR |
| 1.88 | 32.7 | – | SIGLEC-8-47 (antibody, human IgG1, kappa, V domains shown, tested as expressed and purified mAb) VH: EVQLLESGGGLVQPGGSLRLSCAASGFTFSTHAMSWVRQAPGKGLEWVSTISGSGDITYYADSVKGRFTISRDNSKNTLYLQMNSLRAEDTAVYYCARQSRGGSLGMDVWGQGTLVTVSS VL: DIQMTQSPSSLSASVGDRVTITCRASQTISRYLNWYQQKPGKAPKLLIYAASNLYSGVPSRFSGSGSGTDFTLTISSLQPEDFATYYCQQSFATPYTFGGGTKVEIKR |
| 10.6 | 46200 | – | SIGLEC-8-38 (antibody, human IgG1, kappa, V domains shown, tested as expressed and purified mAb) VH: EVQLLESGGGLVQPGGSLRLSCAASGFTFSPYAMSWVRQAPGKGLEWVSGIGGSGGSTYYADSVKGRFTISRDNSKNTLYLQMNSLRAEDTAVYYCARDYGGYYFDYWGQGTLVTVSS VL: DIQMTQSPSSLSASVGDRVTITCRASQYISNYLNWYQQKPGKAPKLLIYATSTLESGVPSRFSGSGSGTDFTLTISSLQPEDFATYYCQQGYSVPWTFGGGTKVEIKR |
| 0.855 | 10.1 | – | SIGLEC-8-23 (antibody, human IgG1, kappa, V domains shown, tested as expressed and purified mAb) VH: EVQLLESGGGLVQPGGSLRLSCAASGLTFSSYAMSWVRQAPGKGLEWVSAISGSGVGTYYADSVKGRFTISRDNSKNTLYLQMNSLRAEDTAVYYCAKHTSSSWYPLDYWGQGTLVTVSS VL: DIQMTQSPSSLSASVGDRVTITCRSSQSITTYLNWYQQKPGKAPKLLIYAASNLYSGVPSRFSGSGSGTDFTLTISSLQPEDFATYYCQQSHTTPLTFGGGTKVEIKR |
| 32.8 | 152000 | – | SIGLEC-8-46 (antibody, human IgG1, kappa, V domains shown, tested as expressed and purified mAb) VH: EVQLLESGGGLVQPGGSLRLSCAASGLTFSRYAMSWVRQAPGKGLEWVSTVSGSGVSTYYADSVKGRFTISRDNSKNTLYLQMNSLRAEDTAVYYCARARGGSSRYYYGMDVWGQGTLVTVSS VL: DIQMTQSPSSLSASVGDRVTITCRASQTIDKYLNWYQQKPGKAPKLLIYGASRLQNGVPSRFSGSGSGTDFTLTISSLQPEDFATYYCQQSYTTPTFGGGTKVEIKR |
| 133 | 2.5 | – | SIGLEC-8-33 (antibody, human IgG1, kappa, V domains shown, tested as expressed and purified mAb) VH: EVQLLESGGGLVQPGGSLRLSCAASGFAFSDYAMSWVRQAPGKGLEWVSAITGSGDYTYYADSVKGRFTISRDNSKNTLYLQMNSLRAEDTAVYYCARDTGGMDVWGQGTLVTVSS VL: DIQMTQSTSSLSASVGDRVTITCRASQSIHSYLNWYQQKPGKAPILIYAASSLERGVPSRFSGSGSGTDFTLTISSLQPEDFATYYCQQSYITPYSFGGGTKVEIKR |
| 1.15 | 1.21 | – | SIGLEC-8-50 (antibody, human IgG1, kappa, V domains shown, tested as expressed and purified mAb) VH: EVQLLESGGGLVQPGGSLRLSCAASGFTLSNYAMTWVRQAPGKGLEWVSTVSGSGASTYYADSVKGRFTISRDNSKNTLYLQMNSLRAEDTAVYYCAREDSGKYLSLDYWGQGTLVTVSS VL: DIQMTQSPSSLSASVGDRVTITCRASQSIGSYLNWYQQKPGKAPKLLIYSASSLQTGVPSRFSGSGSGTDFTLTISSLQPEDFATYYCQQTYNTPITFGGGTKVEIKR |
| 2.43 | 4.68 | – | SIGLEC-8-6 (antibody, human IgG1, kappa, V domains shown, tested as expressed and purified mAb) VH: EVQLLESGGGLVQPGGSLRLSCAASGFSFSSYGMSWVRQAPGKGLEWVSTISGSGGGTYYADSVKGRFTISRDNSKNTLYLQMNSLRAEDTAVYYCAREESGKYLSLDHWGQGTLVTVSS VL: DIQMTQSPSSLSASVGDRVTITCRASQTIRSYLNWYQQKPGKAPKLLIYAASSLHTGVPSRFSGSGSGTDFTLTISSLQPEDFATYYCQQSYTTPITFGGGTKVEIKR |
| 20.8 | 65.4 | – | SIGLEC-8-14 (antibody, human IgG1, kappa, V domains shown, tested as expressed and purified mAb) VH: EVQLLESGGGLVQPGGSLRLSCAASGFSFSNHAMTWVRQAPGKGLEWVSGISGSSGSTYYADSVKGRFTISRDNSKNTLYLQMNSLRAEDTAVYYCAREGRVAAYFDSWGQGTLVTVSS VL: DIQMTQSPSSLSASVGDRVTITCRASQGISGYLNWYQQKPGKAPKLLIYGASRLQNGVPSRFSGSGSGTDFTLTISSLQPEDFATYYCQQSYTTPITFGGGTKVEIKR |
| 1.4 | 88.8 | – | SIGLEC-8-49 (antibody, human IgG1, kappa, V domains shown, tested as expressed and purified mAb) VH: EVQLLESGGGLVQPGGSLRLSCAASGFTFSTYAMHWVRQAPGKGLEWVSTISASGGSTYYADSVKGRFTISRDNSKNTLYLQMNSLRAEDTAVYYCAKSGGADYYYYGMDVWGQGTLVTVSS VL: DIQMTQSPSSLSASVGDRVTITCRASQSIGYYLNWYQQKPGKAPKLLIYGTSSLQSGVPSRFSGSGSGTDFTLTISSLQPEDFATYYCQQSYSTPLNFGGGTKVEIKR |
| 2.87 | 2.02 | – | SIGLEC-8-16 (antibody, human IgG1, kappa, V domains shown, tested as expressed and purified mAb) VH: EVQLLESGGGLVQPGGSLRLSCAASGFTFSDYGMSWVRQAPGKGLEWVLAISGSGATTYYADSVKGRFTISRDNSKNTLYLQMDSLRAEDTAVYYCAREGGSTYYSLDYWGQGTLVTVSS VL: DIQMTQSPSSLSASVGDRVTITCRTSQSIGSYLNWYQQKPGKAPKLLIYATSNLHSGVPSRFSGSGSGTDFTLTISSLQPEDFATYYCQQSYKTPYTFGGGTKVEIKR |
| – | 2.57 | – | SIGLEC-8-15 (antibody, human IgG1, kappa, V domains shown, tested as expressed and purified mAb) VH: EVQLLESGGGLVQPGGSLRLSCAASGFTFSTYTMNWVRQAPGKGLEWVSVISGSGDDTYYADSVKGRFTISRDNSKNTLYLQMNSLRAEDTAVYYCTRAGEQHHYYGMDVWGQGTLVTVSS VL: DIQMTQSPSSLSASVGDRVTITCRASQTISTSLNWYQQKPGKAPKLLIYGASTLQRGVPSRFSGSGSGTDFTLTISSLQPEDFATYYCRQSYSTPITFGGGTKVEIKR |
| 4.47 | 159 | – | SIGLEC-8-39 (antibody, human IgG1, kappa, V domains shown, tested as expressed and purified mAb) VH: EVQLLESGGGLVQPGGSLRLSCAASGFTFSRYGMSWVRQAPGKGLEWVSATSGSGGTTYYADSVKGRFTISRDNSKNTLYLQMNSLRAEDTAVYYCARVGGSGWYPNDYWGQGTLVTVSS VL: DIQMTQSPSSLSASVGDRVTITCRASQSVSRFLNWYQQKPGKAPKLLIYGASTLQTGVPSRFSGSGSGTDFTLTISSLQPEDFATYYCQQSYTTPHTFGGGTKVEIKR |
| 6.46 | 242 | – | SIGLEC-8-3 (antibody, human IgG1, kappa, V domains shown, tested as expressed and purified mAb) VH: EVQLLESGGGLVQPGGSLRLSCAASGFTFSTYDMTWVRQAPGKGLEWVSSIGGSGRSTYYADSVKGRFTISRDNSKNTLYLQMNSLRAEDTAVYYCARGSASAWFAFDYWGQGTLVTVSS VL: DIQMTQSPSSLSASVGDRVTITCRASQSIARYLNWYQQKPGKAPKLLIYGASDLQSGVPSRFSGSGSGTDFTLTISSLQPEDFATYYCQQSYRTSYTFGGGTKVEIKR |
| 1.02 | 3.49 | – | SIGLEC-8-28 (antibody, human IgG1, kappa, V domains shown, tested as expressed and purified mAb) VH: EVQLLESGGGLVQPGGSLRLSCAASGSPFSNYAMSWVRQAPGKGLEWVSSISGGGASTYYADSVKGRFTISRDNSKNTLYLQMNSLRAEDTAVYYCAREKDNSWFGMDVWGQGTLVTVSS VL: DIQMTQSPSSLSASVGDRVTITCRASQSIDRYLNWYQQKPGKAPKLLIYGASTLQTGVPSRFSGSGSGTDFTLTISSLQPEDFATYYCQQTYSTPITFGGGTKVEIKR |
| 1590 | 8080 | – | SIGLEC-8-9 (antibody, human IgG1, kappa, V domains shown, tested as expressed and purified mAb) VH: not shown VL: DIQMTQSPSSLSASVGDRVTITCRTSQTISTYLNWYQQKPGKAPKLLIYDASDLQSGVPSRFSGSGSGTDFTLTISSLQPEDFATYYCQQNYITPNTFGGGTKVEIKR |
| 8.28 | 160000 | – | SIGLEC-8-2 (antibody, human IgG1, kappa, V domains shown, tested as expressed and purified mAb) VH: EVQLLESGGGLVQPGGSLRLSCAASGFTFSKHAMSWVRQAPGKGLEWVSGISGSGARTYYADSVKGRFTISRDNSKNTLYLQMNSLRAEDTAVYYCARQSRGGSLGMDVWGQGTLVTVSS VL: DIQMTQSPSSLSASVGDRVTITCRASQRISSYLNWYQQKPGKAPKLLIYGASILQTGVPSRFSGSGSGTDFTLTINSLQPEDFATYYCQESYSTPFTFGGGTKVEIKR |
| 7.63 | 50.6 | – | SIGLEC-8-25 (antibody, human IgG1, kappa, V domains shown, tested as expressed and purified mAb) VH: EVQLLESGGGLVQPGGSLRLSCAASGFTFSKYAMDWVRQAPGKGLEWVSDISGSGGTTYYADSVKGRFTISRDNSKNTLYLQMNSLRAEDTAVYYCVRAGLVGYDFDIWGQGTLVTVSS VL: DIQMTQSPSSLSASVGDRVTITCRASESISSYLNWYQQKPGKAPKLLIYGASILQGGVPSRFSGSGSGTDFTLTISSLQPEDFATYYCQQSYSFPITFGGGTKVEIKR |
| – | 10 | – | SIGLEC-8-51 (antibody, human IgG1, kappa, V domains shown, tested as expressed and purified mAb) VH: EVQLLESGGGLVQPGGSLRLSCAASGFTFPRYGMSWVRQAPGKGLEWVTATSGSGGTTYYADSVKGRFTISRDNSKNTLYLQMNSLRAEDTAVYYCARDESSGWYPKDYWGQGTLVTVSS VL: DIQMTQSPSSLSASVGDRVTITCRASQSVSRFLNWYQQKPGKAPKLLIYGASNLEGGVPSRFSGSGSGTDFTLTISSLQPEDFATYYCQQSYTTPHTFGGGTKVEIKR |
